Measurements: US20090221691A1 (UNIVERSITY OF ROCHESTER, published 2009)
Like-named read-outs stand apart in the source and are kept apart here.

Tests used:
[1] = molecular target: biotinylated Gβ1γ2 mutant Met188Ala (rat) (UniProt P54311); test: phage ELISA, % of wild-type b-βγ
[2] = molecular target: biotinylated Gβ1γ2 mutant Tyr145Ala (rat) (UniProt P54311); test: phage ELISA, % of wild-type b-βγ
[3] = molecular target: biotinylated Gβ1γ2 mutant Asp246Ser (rat) (UniProt P54311); test: phage ELISA, % of wild-type b-βγ
[4] = molecular target: biotinylated Gβ1γ2 mutant His311Ala (rat) (UniProt P54311); test: phage ELISA, % of wild-type b-βγ
[5] = molecular target: biotinylated Gβ1γ2 mutant Phe292Ala (rat) (UniProt P54311); test: phage ELISA, % of wild-type b-βγ
[6] = molecular target: biotinylated Gβ1γ2 mutant Met101Ala (rat) (UniProt P54311); test: phage ELISA, % of wild-type b-βγ
[7] = molecular target: biotinylated Gβ1γ2 mutant Trp99Ala (rat) (UniProt P54311); test: phage ELISA, % of wild-type b-βγ
[8] = molecular target: biotinylated Gβ1γ2 mutant His62Ala (rat) (UniProt P54311); test: phage ELISA, % of wild-type b-βγ
[9] = molecular target: biotinylated Gβ1γ2 mutant Arg314Ala (rat) (UniProt P54311); test: phage ELISA, % of wild-type b-βγ
[10] = molecular target: biotinylated Gβ1γ2 mutant Trp332Ala (rat) (UniProt P54311); test: phage ELISA, % of wild-type b-βγ
[11] = molecular target: biotinylated Gβ1γ2 mutant Leu117Ala (rat) (UniProt P54311); test: phage ELISA, % of wild-type b-βγ
[12] = molecular target: biotinylated Gβ1γ2 mutant Asn230Ala (rat) (UniProt P54311); test: phage ELISA, % of wild-type b-βγ
[13] = molecular target: biotinylated Gβ1γ2 mutant Lys57Ala (rat) (UniProt P54311); test: phage ELISA, % of wild-type b-βγ
[14] = molecular target: biotinylated Gβ1γ2 mutant Met188Ala (rat) (UniProt P54311); test: flow cytometry, dissociation of Fαi1 from immobilized b-β1γ2
[15] = molecular target: biotinylated Gβ1γ2 mutant Tyr145Ala (rat) (UniProt P54311); test: as above
[16] = molecular target: biotinylated Gβ1γ2, wild-type (BAP-rat Gβ1 with Gγ2) (rat) (UniProt P54311); test: as above
[17] = molecular target: biotinylated Gβ1γ2 mutant Met101Ala (rat) (UniProt P54311); test: as above
[18] = molecular target: biotinylated Gβ1γ2 mutant Asp186Ala (rat) (UniProt P54311); test: as above
[19] = molecular target: biotinylated Gβ1γ2 mutant Trp99Ala (rat) (UniProt P54311); test: as above
[20] = molecular target: biotinylated Gβ1γ2 mutant Arg314Ala (rat) (UniProt P54311); test: as above
[21] = molecular target: biotinylated Gβ1γ2 mutant Trp332Ala (rat) (UniProt P54311); test: as above
[22] = molecular target: biotinylated Gβ1γ2 mutant Leu117Ala (rat) (UniProt P54311); test: as above
[23] = molecular target: biotinylated Gβ1γ2 mutant Asn230Ala (rat) (UniProt P54311); test: as above
[24] = molecular target: biotinylated Gβ1γ2 mutant Tyr59Ala (rat) (UniProt P54311); test: as above
[25] = molecular target: biotinylated Gβ1γ2 mutant Lys57Ala (rat) (UniProt P54311); test: as above
[26] = molecular target: biotinylated Gβ1γ2 mutant Met188Ala (rat) (UniProt P54311); test: phage ELISA, % of wild-type b-βγ; remark: listed apart in the source
[27] = molecular target: biotinylated Gβ1γ2 mutant Tyr145Ala (rat) (UniProt P54311); test: phage ELISA, % of wild-type b-βγ; remark: listed apart in the source
[28] = molecular target: biotinylated Gβ1γ2 mutant Asp246Ser (rat) (UniProt P54311); test: phage ELISA, % of wild-type b-βγ; remark: listed apart in the source
[29] = molecular target: biotinylated Gβ1γ2 mutant His311Ala (rat) (UniProt P54311); test: phage ELISA, % of wild-type b-βγ; remark: listed apart in the source
[30] = molecular target: biotinylated Gβ1γ2 mutant Met101Ala (rat) (UniProt P54311); test: phage ELISA, % of wild-type b-βγ; remark: listed apart in the source
[31] = molecular target: biotinylated Gβ1γ2 mutant Asp186Ala (rat) (UniProt P54311); test: phage ELISA, % of wild-type b-βγ
[32] = molecular target: biotinylated Gβ1γ2 mutant Trp99Ala (rat) (UniProt P54311); test: phage ELISA, % of wild-type b-βγ; remark: listed apart in the source
[33] = molecular target: biotinylated Gβ1γ2 mutant Arg314Ala (rat) (UniProt P54311); test: phage ELISA, % of wild-type b-βγ; remark: listed apart in the source
[34] = molecular target: biotinylated Gβ1γ2 mutant Trp332Ala (rat) (UniProt P54311); test: phage ELISA, % of wild-type b-βγ; remark: listed apart in the source
[35] = molecular target: biotinylated Gβ1γ2 mutant Leu117Ala (rat) (UniProt P54311); test: phage ELISA, % of wild-type b-βγ; remark: listed apart in the source
[36] = molecular target: biotinylated Gβ1γ2 mutant Asn230Ala (rat) (UniProt P54311); test: phage ELISA, % of wild-type b-βγ; remark: listed apart in the source
[37] = molecular target: biotinylated Gβ1γ2 mutant Tyr59Ala (rat) (UniProt P54311); test: phage ELISA, % of wild-type b-βγ
[38] = molecular target: biotinylated Gβ1γ2 mutant Lys57Ala (rat) (UniProt P54311); test: phage ELISA, % of wild-type b-βγ; remark: listed apart in the source
[39] = molecular target: T1, biotinylated Gβ1γ2, wild-type (BAP-rat Gβ1 with Gγ2) (rat, UniProt P54311 1-340; P63212 2-68, biotin on the lysine acceptor residue of the BAP); test: phage ELISA on immobilized b-βγ
T1 construct: immobilized on streptavidin in the assays; also called b-βγ; b-Gβ1γ2; not shown: 20 amino acid biotin acceptor peptide (BAP) fused to the N-terminus
Experimental: Phage ELISA assays used to assess peptide binding to wild-type and mutant b-βγ were performed according to standard methods (Smrcka and Scott (2002) Methods Enzymol. 344:557-76). Briefly, 1 μg streptavidin was immobilized in the well of a […] overnight at 4° C. The wells were blocked with 100 μL of 2% bovine serum albumin (BSA) in Tris-buffered saline (TBS) for 1 hour at 4° C. followed by three washes of 1×TBS/0.5% TWEEN®. […] The wells were washed, followed by the addition of 1×10⁶ to 1×10¹⁰ phage particles and incubated at 4° C. for 3 hours. The wells were then washed six times with TBS/0.5% TWEEN® followed by addition of 40 μL of 1:5000 dilution of anti-M13 antibody (Pharmacia, Uppsala, Sweden) and incubated at room temperature for 1 hour. The wells were washed, followed by the addition of 40 μL of (2,2′-Azino-bis(3-ethylbenzthiazoline)-6-sulfonic acid (ABTS) and the […] reaction was monitored at 405 nm. Non-specific binding was subtracted for each reading.

Chain of biotinylated Gβ1γ2 mutant His311Ala (rat) (P54311 whole entry H311A, chain 1 of 2): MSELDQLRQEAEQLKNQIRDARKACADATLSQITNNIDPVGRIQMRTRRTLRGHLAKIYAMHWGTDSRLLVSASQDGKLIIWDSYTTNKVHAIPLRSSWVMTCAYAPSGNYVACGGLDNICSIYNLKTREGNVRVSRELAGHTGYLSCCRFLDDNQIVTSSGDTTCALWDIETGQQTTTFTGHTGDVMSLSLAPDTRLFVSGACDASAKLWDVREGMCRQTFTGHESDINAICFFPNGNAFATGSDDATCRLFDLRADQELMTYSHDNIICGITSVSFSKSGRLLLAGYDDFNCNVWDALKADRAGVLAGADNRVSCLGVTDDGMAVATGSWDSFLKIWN
Chain of biotinylated Gβ1γ2 mutant His311Ala (rat) (P63212 2-68, chain 2 of 2, further chain): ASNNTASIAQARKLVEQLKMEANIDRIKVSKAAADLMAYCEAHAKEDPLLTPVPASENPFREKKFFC
Chain of biotinylated Gβ1γ2 mutant Arg314Ala (rat) (P54311 whole entry R314A, chain 1 of 2): as the sequence (P54311 whole entry H311A, chain 1 of 2) above, with A311H, R314A counted along it
Chain of biotinylated Gβ1γ2 mutant Arg314Ala (rat) (P63212 2-68, chain 2 of 2, further chain): as the sequence (P63212 2-68, chain 2 of 2, further chain) above
Chain of biotinylated Gβ1γ2 mutant Trp332Ala (rat) (P54311 whole entry W332A, chain 1 of 2): as the sequence (P54311 whole entry H311A, chain 1 of 2) above, with A311H, W332A counted along it
Chain of biotinylated Gβ1γ2 mutant Trp332Ala (rat) (P63212 2-68, chain 2 of 2, further chain): as the sequence (P63212 2-68, chain 2 of 2, further chain) above
Chain of Fluorescein-labeled Gαi1 (P10824 2-354): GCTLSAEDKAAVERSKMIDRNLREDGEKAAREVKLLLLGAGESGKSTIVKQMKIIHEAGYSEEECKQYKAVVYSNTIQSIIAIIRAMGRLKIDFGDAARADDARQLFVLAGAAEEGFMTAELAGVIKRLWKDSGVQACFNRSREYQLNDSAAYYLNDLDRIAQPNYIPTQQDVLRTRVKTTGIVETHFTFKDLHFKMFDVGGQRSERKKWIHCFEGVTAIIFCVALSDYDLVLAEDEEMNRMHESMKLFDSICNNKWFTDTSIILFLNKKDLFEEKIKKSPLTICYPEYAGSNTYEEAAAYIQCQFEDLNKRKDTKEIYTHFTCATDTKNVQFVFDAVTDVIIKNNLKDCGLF
Chain of biotinylated Gβ1γ2 mutant Tyr59Ala (rat) (P54311 whole entry Y59A, chain 1 of 2): as the sequence (P54311 whole entry H311A, chain 1 of 2) above, with Y59A, A311H counted along it
Chain of biotinylated Gβ1γ2 mutant Tyr59Ala (rat) (P63212 2-68, chain 2 of 2, further chain): as the sequence (P63212 2-68, chain 2 of 2, further chain) above
Chain of biotinylated Gβ1γ2 mutant Lys57Ala (rat) (P54311 whole entry K57A, chain 1 of 2): as the sequence (P54311 whole entry H311A, chain 1 of 2) above, with K57A, A311H counted along it
Chain of biotinylated Gβ1γ2 mutant Lys57Ala (rat) (P63212 2-68, chain 2 of 2, further chain): as the sequence (P63212 2-68, chain 2 of 2, further chain) above
Chain of biotinylated Gβ1γ2 mutant Tyr145Ala (rat) (P54311 whole entry Y145A, chain 1 of 2): as the sequence (P54311 whole entry H311A, chain 1 of 2) above, with Y145A, A311H counted along it
Chain of biotinylated Gβ1γ2 mutant Tyr145Ala (rat) (P63212 2-68, chain 2 of 2, further chain): as the sequence (P63212 2-68, chain 2 of 2, further chain) above
Chain of biotinylated Gβ1γ2 mutant Asp246Ser (rat) (P54311 whole entry D246S, chain 1 of 2): as the sequence (P54311 whole entry H311A, chain 1 of 2) above, with D246S, A311H counted along it
Chain of biotinylated Gβ1γ2 mutant Asp246Ser (rat) (P63212 2-68, chain 2 of 2, further chain): as the sequence (P63212 2-68, chain 2 of 2, further chain) above
Chain of biotinylated Gβ1γ2 mutant Asp186Ala (rat) (P54311 whole entry D186A, chain 1 of 2): as the sequence (P54311 whole entry H311A, chain 1 of 2) above, with D186A, A311H counted along it
Chain of biotinylated Gβ1γ2 mutant Asp186Ala (rat) (P63212 2-68, chain 2 of 2, further chain): as the sequence (P63212 2-68, chain 2 of 2, further chain) above
Chain of biotinylated Gβ1γ2 mutant Met101Ala (rat) (P54311 whole entry M101A, chain 1 of 2): as the sequence (P54311 whole entry H311A, chain 1 of 2) above, with M101A, A311H counted along it
Chain of biotinylated Gβ1γ2 mutant Met101Ala (rat) (P63212 2-68, chain 2 of 2, further chain): as the sequence (P63212 2-68, chain 2 of 2, further chain) above
T1 sequence (P54311 whole entry, chain 1 of 2, the tested form may be a part): as the sequence (P54311 whole entry H311A, chain 1 of 2) above, with A311H counted along it
T1 sequence (P63212 2-68, chain 2 of 2): as the sequence (P63212 2-68, chain 2 of 2, further chain) above

Molecule | % of Wild-Type Signal [26] [%] | % of Wild-Type Signal [27] [%] | % of Wild-Type Signal [28] [%] | % of Wild-Type Signal [29] [%] | % of Wild-Type Signal [30] [%] | % of Wild-Type Signal [31] [%] | % of Wild-Type Signal [32] [%] | % of Wild-Type Signal [33] [%] | % of Wild-Type Signal [34] [%] | % of Wild-Type Signal [35] [%] | % of Wild-Type Signal [36] [%] | % of Wild-Type Signal [37] [%] | % of Wild-Type Signal [38] [%] | binding result [39] | further results
phage displaying SIGK peptide |  |  |  |  |  |  |  |  |  |  |  |  |  |  | % of Wild-Type Signal [1]: 2.5%; % of Wild-Type Signal [2]: 0.8%; % of Wild-Type Signal [3]: 66.5%; % of Wild-Type Signal [4]: 94.3%; % of Wild-Type Signal [5]: 109%; % of Wild-Type Signal [6]: 32.2%; % of Wild-Type Signal [7]: 66%; % of Wild-Type Signal [8]: 111%; % of Wild-Type Signal [9]: 50.2%; % of Wild-Type Signal [10]: 7.1%; % of Wild-Type Signal [11]: 2.1%; % of Wild-Type Signal [12]: 22.4%; % of Wild-Type Signal [13]: 18.6%
Fluorescein-labeled Gαi1 |  |  |  |  |  |  |  |  |  |  |  |  |  |  | koff [14]: 0.00203 s⁻¹; koff [15]: 0.00258 s⁻¹; koff [16]: 0.00205 s⁻¹; koff [17]: 0.0019 s⁻¹; koff [18]: 0.00267 s⁻¹; koff [19]: 0.0048 s⁻¹; koff [20]: 0.00197 s⁻¹; koff [21]: 0.00502 s⁻¹; koff [22]: 0.00602 s⁻¹; koff [23]: 0.00247 s⁻¹; koff [24]: 0.00302 s⁻¹; koff [25]: 0.0024 s⁻¹
SIGKALFILGYPDYD [phage 3.14 (SIGKALFILGYPDYD)] | 2.5 | 0.8 | 66.5 | 93.4 | 26.8 | 14.4 | 66 | 50.2 | 7.1 | 2.1 | 22.4 | 24.7 | 18.6 | binds | 
LCSKAYLLLGQTC (Group I) [phage 2F (LCSKAYLLLGQTC)] | 8.5 | 0.1 | 0.6 | 23.6 | 6 | 2.4 | 32.6 | 2.4 | -1.5 | 2.1 | 27.6 | -2 | -4.5 | binds | 
SCKRTKAQILLAPCT (Group I; also called Cl) [phage C1 (SCKRTKAQILLAPCT)] | 4 | 88 | 2.3 | 3 | 70.5 | 1.4 | 1.2 | 2.8 | -0.3 | 5.2 | 19.8 | 0.3 | 0.1 | binds | 
WCPPKAMTQLGIKAC (Group II) [phage C14 (WCPPKAMTQLGIKAC)] | 9.9 | 1.9 | 6.3 | 6.1 | 1.1 | 3.6 | 10.1 | 3.9 | 1.6 | 3.8 | 60 | 3.6 | 3 | binds | 
SCGHGLKVQSTIGACA (Group II) [phage 3C (SCGHGLKVQSTIGACA)] | -5.7 | 2.7 | 2 | 30.5 | -4.2 | 35 | -0.5 | 8.3 | -0.3 | 10 | 4.1 | 8.5 | 3.6 | binds | 
SCEKRYGIEFCT [phage C4 (…)] | 128 | 4.4 | 35.8 | 36.5 | 61.2 | 51.3 | 67 | 1.4 | 1.7 | 18.4 | 11.5 | 7.6 | -0.2 |  | 
SCEKRLGVRSCT (Group III) [phage C5 (SCEKRLGVRSCT)] | 97.2 | 16.7 | 56.3 | 58.7 | 47.8 | 45.7 | 39 | 76.5 | 3.2 | 28.5 | 33.5 | 73.8 | 5.6 | binds | 
WCPPKLEQWYDGCA (Group IV) [phage C2 (WCPPKLEQWYDGCA)] | -0.7 | 4.5 | 5.9 | 11.7 | 157 | 267 | -1 | 1.3 | 4.7 | 1.5 | 0 | -1.7 | -1.2 | binds | 
SCEKRYGIEFCT (Group III) [phage C4 (SCEKRYGIEFCT)] |  |  |  |  |  |  |  |  |  |  |  |  |  | binds | 
